Experimental findings from the supplement of paper PMC9732359 are described below.

± gives the uncertainty stated by the source.

A short description of this data set: protein stability index of a GFP-peptide fusion (yeast GPS) (PSI 1-4); higher = more stable; sorted into four equal gates, so the index is relative within each strain. The essentials:
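Plasmids in a pooled yeast library fused tiled 17-residue yeast protein peptides downstream of GFP and also expressed Cherry. Mid-log cultures grown without leucine were sorted into four equal gates by GFP/Cherry fluorescence ratio. Each gate's plasmids were PCR-amplified and Illumina-sequenced, and reads were matched to strains by barcodes. The protein stability index is derived by multiplying each gate's read frequency by its gate number and summing the results.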

VLQEYRLTKQAFDWVLS [RPO21]: the protein stability index is, setting by setting: (doa10∆) 2.59 ± 0.068; (pdr5∆) 2.48 ± 0.069; (san1∆) 2.89 ± 0.073; (ubr1∆) 2.78 ± 0.046.
The corresponding values for VLRLATNKGPLAQIWLA [MCD1] are 1.93 ± 0.11, 1.31 ± 0.052, 1.51 ± 0.15 and 1.17 ± 0.055.
The matching figures for VLVGSCAYTGTGDVLLI [RPN1]: 3.13 ± 0.094, 3.35 ± 0.067, 3.41 ± 0.13 and 3.1 ± 0.075.
For the sequence VLYQSNATHDEDEFIVQ [SWP82], the protein stability index was 3.05 ± 0.041 (doa10∆), 3.14 ± 0.038 (pdr5∆), 3.11 ± 0.039 (san1∆) and 3.151 ± 0.028 (ubr1∆).
Consider VMEIGKDAEYLRNYLTP [PUP1], for which the protein stability index is, setting by setting: (doa10∆) 2.85 ± 0.076; (pdr5∆) 2.85 ± 0.096; (san1∆) 2.77 ± 0.086; (ubr1∆) 2.85 ± 0.12.
Turning to VMGTPLTNMMSPMGNAY [PGD1], the protein stability index reads like this: (doa10∆) 2.03 ± 0.14; (pdr5∆) 2.24 ± 0.21; (san1∆) 1.62 ± 0.18.
For the sequence VMMDVDSSGVNDLHHSE [RPN3], the protein stability index stood at 3.34 ± 0.082 (doa10∆), 3.31 ± 0.076 (pdr5∆), 3.35 ± 0.066 (san1∆) and 3.19 ± 0.054 (ubr1∆).
The sequence VNARDIPPLNKSLAMEH [CSN12] gave a protein stability index (doa10∆) of 2.77 ± 0.23, a protein stability index (pdr5∆) of 2.67 ± 0.17 and a protein stability index (san1∆) of 2.61 ± 0.19.
As for VNGSITDQLIQNIETRQ [NUT1], the protein stability index is, setting by setting: (doa10∆) 3.22 ± 0.079; (pdr5∆) 3.01 ± 0.092; (san1∆) 3.05 ± 0.071; (ubr1∆) 3.15 ± 0.042.
Take VNGSPITLVEPEILRFK [RPS16A]: the protein stability index amounted to 2.79 ± 0.15 (pdr5∆) and 3.36 ± 0.17 (ubr1∆).
As for VNIVEKDGAKFIEVRNF [RPL9A], the protein stability index was found to be 3.38 ± 0.19 (doa10∆), 3.02 ± 0.2 (san1∆) and 1.71 ± 0.24 (ubr1∆).
On to VNNCIWALKSSLNSMTN [RGR1], for which the protein stability index is, setting by setting: (doa10∆) 2.71 ± 0.1; (pdr5∆) 2.39 ± 0.22; (ubr1∆) 2.37 ± 0.16.
VNWLAYTYLYVRMLASP [BRR2]: the protein stability index (doa10∆) was 1.11 ± 0.14, the protein stability index (pdr5∆) was 1.14 ± 0.18, the protein stability index (san1∆) was 1.31 ± 0.19 and the protein stability index (ubr1∆) turned out to be 1.24 ± 0.1.
The matching figures for VNYLISNTMYSVRLFSF [YJL039C/NUP192]: 1.43 ± 0.046, 1.42 ± 0.058, 1.34 ± 0.088 and 1.6 ± 0.056.
The corresponding values for VPDSKIRIYDLGKKKAT [RPL10] are 1.24 ± 0.076, 1.35 ± 0.071, 1.15 ± 0.13 and 1.05 ± 0.056.
The corresponding values for VPEFFQTANEKHITVRL [SRP14] are 3.02 ± 0.1, 2.67 ± 0.11, 3.01 ± 0.12 and 2.56 ± 0.1.
For VPGMPAPIKKIIERYIK [PRP8], the protein stability index reads like this: (doa10∆) 3.37 ± 0.24; (pdr5∆) 3.23 ± 0.13; (san1∆) 2.95 ± 0.11; (ubr1∆) 3.16 ± 0.13.
The corresponding values for VPGPGTKLIQYEHNGRT [CSL4] are 3 ± 0.092, 3.06 ± 0.058, 3.25 ± 0.066 and 3.09 ± 0.056.
The matching figures for VPIKSSKSGRIFALVFS [RPN13]: 2.57 ± 0.14, 2.41 ± 0.091, 2.41 ± 0.096 and 2.63 ± 0.1.
The matching figures for VPTLEAKRDYIISRLNA [FAS1]: 3.13 ± 0.087, 3.35 ± 0.16, 3.05 ± 0.076 and 3.25 ± 0.071.
For VPTVPPSQSEEQKGQMA [MED4], the protein stability index was 2.78 ± 0.12 (doa10∆), 2.82 ± 0.058 (pdr5∆), 3 ± 0.067 (san1∆) and 2.6 ± 0.091 (ubr1∆).
The matching figures for VPVKLEEIKTVDPASAP [RRP6]: 2.83 ± 0.13, 2.56 ± 0.16, 2.87 ± 0.17 and 2.79 ± 0.11.
VQDCRYSLASVTLKGAK [POP1]: the protein stability index reads like this: (doa10∆) 2.35 ± 0.041; (pdr5∆) 2.68 ± 0.051; (san1∆) 2.61 ± 0.04; (ubr1∆) 2.56 ± 0.049.
For the sequence VQIKDVNDRYQIPTPNN [CSI1], the protein stability index came to 1.72 ± 0.05 (doa10∆), 2.25 ± 0.064 (pdr5∆), 1.75 ± 0.12 (san1∆) and 1.73 ± 0.049 (ubr1∆).
The corresponding values for VQISNIPDIGDLPDTEG [PRP8] are 3.24 ± 0.07, 3.29 ± 0.059, 3.2 ± 0.049 and 3.23 ± 0.043.
